Measured values as given in article PMC4278681.

T1: N-HvGR-RBP1 (RRM domain) (Hordeum vulgare L., UniProt J7FTI7 1-92)
T1 sequence: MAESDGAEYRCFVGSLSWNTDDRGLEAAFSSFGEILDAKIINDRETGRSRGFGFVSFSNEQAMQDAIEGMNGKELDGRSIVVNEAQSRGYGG


Target: T1, N-HvGR-RBP1 (RRM domain)
Assay: NMR

Binder	binding result
TTCTGT (ssDNA) [TTCTGT 6-mer]	binds
TTCTGA (ssDNA) [TTCTGA 6-mer]	binds
